Test results: the NTF2 design screens of Basanta et al. (2020)

Assay: protease stability score; higher = more stable; yeast display proteolysis, trypsin and chymotrypsin;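 also: log10 excess protease needed over predicted unfolded state with 0 meaning unfolded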
Work on “DEEANDLFRQIQTAENDNNPDEITELFDENATFRVGDRVIKGREKYAHKVVENLQKWRFTWDRIDVKARNGHARVTIRMTFNVNGKPDSYQAVMHLQFSNGRVQEIHMDIDPRKAKELLK” yielded a protease stability score of 0.124. With “DDELEKLITRWLEALDTNNPRQVKSNIDPNVHIEIGDKKIHGREQAMKDIHHRLERMRVEFDLKSLDSHGERASFRFRLHIRFNGRPIDIDAEVSVQVHNGKFKKMSQRISEEQAKQMSE” the protease stability score was 0.403. “DSDAARELVKALNTGNEEELKHMVDPNARARVGDKRLHGRDELFRFWHKLKRHVDHRRVNKVEIHGEKAHVDVQLNVDGRNIRVNIVMEAHNGRVKEFTIEFRDRDARKEFRNQVD” showed a protease stability score of 1.16. Work on “DDEARNLVSEWLKAVETGDPDRVSQNMDPNASYHIGEWNVTGRETVNKLLDDVKTRLRVQFNIQHLDANGDTVDLRAMVLYEHNGKPDTKVYHFKFQQHNGKLVDVRATEDG” yielded a protease stability score of 0.736. Work on “DERNLRVVKHFWHAVRTGDPEEVKRQADKHVRVRIGDKHIEGRETLAHEVREEKNQLENDIQIRDIKVQGDRVHMRVVVVFNIDGRPQSVQITVEAKAHNGKLQSMSQEVPEEVLHEIEK” yielded a protease stability score of 0.021. Sequence “DEEKVKNHILEALNAMMTGDPDKVRRMVDKDARLRIGEKVFHGREEVSKAAEEFREQFDHITITDYRVEPGHARVHAVINVNGKNVEITIKATATNGKIQRIVLDPRAVERLKS” has a protease stability score of 0.926. With “EDEVNKILEDVATAIRTGDPDRVVENLDPNAKVQVGDKTLDGQKEVREFFERNQREASVRLHVTSVHVNGDKVKMKANYQQNRNGNPDFKDVDVTAHAHNGKLKVMEHRRDG” the protease stability score was -0.451. Work on “DEEKEDKLLLKFARVVLQNNPEDLTRLMDPNAHLEVGDQTWHGREQVSDVLSKFAKRVDEVEVEDYDKRGNDLKVVMTLNINGKNIKVNLTFVVSNGRVTNVRLDPEAQKKIEK” yielded a protease stability score of 0.37. For “DHEALKVLHKFMEALNTGDPDQLNKNIDPNARFVVGDKTINGREQFREDQRRLKEQIRVYATIRTIRVEGDHANLTVEYEQDHNGKPDSNEVTVTAKLKNGKIQEVREDRKQ”, the protease stability score was -0.18. With “DEDSEATEVAKTMHKNMKEGDPDKFMDQFDKDVRVQVGDKVYHGRDNALKWVREMLKRVDHVNFQVKRVRRQGDSVVLHLEVTLNQNGKHDKTTFVIHFTKQGDKFRADHLREQ” the protease stability score was 1.86. “DDKEAHKRARQLVRIVQTGNESDVRKLFDKNARVVIGDKTFHGRENVQKAVREMRERVDHVQVHRVRAQGNKVRALVQYDINGKQEHYNFDMTFHNGRAKSMVVKES” gave a protease stability score of 0.812. For “DDQKTANHLNKQFKDVWTSGDEHRLQELMDPNVRVDVGDKRYKGDEQVNKYFIDLLRNVDHVDFDVKDMKARGEKVLLVVDIRVDINGKRHRFNARQIFTVEGDQARVKVYHDG”, the protease stability score was 0.653. In the case of “DSEAQKIAEKLHEAWNTNNPNEAQHLMDPNAHVRVGDKEIDGMDQYVREMQRLLDKLRLEVKDWDVRAHNGNVTLRANARVDVNGQPQEYTYVIVMQVKNGRVKELHLHIDEEELRTLES”, the protease stability score is reported as 1.02. “DRERQKKNLKDFVDALTKGDPDQVVKQFDKDARVRVGDKQVEGRDQIREFAKEWSKHVDRFRITEMRVHNGRLDIQAEQHHNGRKRRIQVEVNWHNGQIKNMQWTHG” showed a protease stability score of 1.4. For “DEENQKQIKKIWHAWEKGDEQKAQDMVDPNVNIQVGDKHISGQDSLREDLRRKRHEMRVRVRFHDINIDENHISVKIEVLNEKNGRPSTKVVVFEATVHNGKIKSMEFRDDD”, the protease stability score was 0.494. Work on “DETEAKKNVEVVEQNDWDTFEDQVDENAKMKVGDKEIHGREQFSEFADNMKKNADHVEVKSVDRRGDEINIEMVVSVNGKRVTYVVQFVVNNGKIHDVQFDARSEDDERFLKEVQS” yielded a protease stability score of 0.619. Sequence “DEDRQQTLADELVKALEKGDFEKIEKLADPNVRVEIGDRHVRGREQASKELKKYTDRVDEVRIDSLEVQGEKVSADFRFNVDGHTIRLTAEITFHNGRIKMMRFHFTNEDQERRYKS” has a protease stability score of 1.02. In the case of “DERDRHKQVEEMINAFDDGDEETIKELMDEDVRAQIGNKRVHGQENVSRILKEFRDRADHIQVDTYHVEGDRAQIHAKVEVNGRRIKVSIHVQLENGRFKSFVIEYTDSDKLREMQS”, the protease stability score is reported as 0.909. “DKEEAQKVAEQMVKAIKNGNLDELADAGDDGVDYQVGDEKKRGREDIKRHVEKLQKAGVEMEVKEVRVEGNEVETKLTYKIGNTEVTVKVTVEVEGGKINRVEVRMSEEVEKTVRHG” gave a protease stability score of -0.193. Work on “DEKEAQKLLEKIAKTMKNGDTETAKKLGKDDVEVKYADDEHHGPDAIKKMLEKLKKLGLEVEYKEIHVEGDTVRVKVQVHHGGTTAHMEVEYQARGRKVDNMRVKYDERAKKLIKHG” yielded a protease stability score of 0.471.
